How the values were obtained:
[1] = biological target: T1, GST-HP1γR38/9K (full-length mouse HP1γ with R38 and R39 mutated to lysine) (mouse, UniProt P23198 1-183, R38/9K | R38/9K); experiment: pull-down; H3K9me3 or unmethylated H3(1–16) peptides linked to Dynabeads MyOne streptavidin T1; eluted GST-HP1 in HBS-EP (300 mM NaCl, 10 mM HEPES KOH pH 7.4, 5 mM EDTA, 0.2% NP-40); SDS-PAGE, Coomassie-blue staining; settings: both partners purified
T1 construct: heterochromatin protein 1 gamma (HP1γ), mouse, full length, R38K and R39K (retains the positive charge); source: E. coli, expressed as GST fusion protein (pGEX-2T), purified
T1 sequence (P23198 other isoform, or with tags, fused parts or gaps R38/9K | R38/9K | R38/9K | R38/9K): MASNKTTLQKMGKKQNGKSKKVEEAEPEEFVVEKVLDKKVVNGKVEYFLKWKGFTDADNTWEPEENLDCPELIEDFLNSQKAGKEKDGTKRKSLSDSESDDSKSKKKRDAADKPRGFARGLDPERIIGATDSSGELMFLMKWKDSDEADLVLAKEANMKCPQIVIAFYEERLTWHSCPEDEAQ

[2] = biological target: T2, GST-HP1γR38/9A (full-length mouse HP1γ with alanine substitutions at amino acids 38 and 39) (mouse, UniProt P23198 1-183, R38/9A | R38/9A); experiment: as above; settings: both partners purified
T2 construct: heterochromatin protein 1 gamma (HP1γ), mouse, full length, R38A and R39A (designed to mimic citrullination); also called double alanine mutant; source: E. coli, expressed as GST fusion protein (pGEX-2T), purified
T2 sequence (P23198 other isoform, or with tags, fused parts or gaps R38/9A | R38/9A | R38/9A | R38/9A): as the sequence (P23198 other isoform, or with tags, fused parts or gaps R38/9K | R38/9K | R38/9K | R38/9K) above, with K38A, K39A counted along it

binding result [1]: binds | binding result [2]: binds
B1: H3K9me3(1–16) peptide (peptide)
peptide: ARTKQTARKSTGGKAP
modifications: trimethyl-lysine at K9 (K(me3)); biotin at the C-terminus
notes: histone H3, residues 1-16; also called methylated H3K9me3(1–16) peptides; H3K9me3 peptides

— publication PMC6444592, “Citrullination of HP1γ chromodomain affects association with chromatin” (Epigenetics & Chromatin, 2019)
